From paper PMC3502708

Columns and labels:
[1] = target: MOZ PHD1/2 fingers (aa 207-318) (human), Q92794; assay: other fluorescence titration
[2] = target: T1, MORF PHD1/2 fingers (aa 211-329) (human), Q8WYB5; assay: other fluorescence titration
T1 chain: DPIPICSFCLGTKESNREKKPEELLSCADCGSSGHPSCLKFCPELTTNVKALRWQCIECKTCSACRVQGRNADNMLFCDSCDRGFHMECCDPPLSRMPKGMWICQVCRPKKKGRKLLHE

Sequence of MOZ PHD1/2 fingers (aa 207-318) (human), Q92794 (Q92794 207-318): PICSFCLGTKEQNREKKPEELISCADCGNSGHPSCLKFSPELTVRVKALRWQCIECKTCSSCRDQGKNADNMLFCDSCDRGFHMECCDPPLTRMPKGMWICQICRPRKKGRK

Binder: ARTKQTARKSTG (modifications not checked) [unmodified histone H3 peptide (length not stated for the experiment)]
- Kd [1]: 3.9 µM
- Kd [2]: 4.3 µM
